This assay concerns the target SARS-CoV-2 spike receptor binding domain, wild-type (S-RBD) (SARS-CoV-2, UniProt P0DTC2 319-541). Description: BLI (Octet RED96), biotin S-RBD on SA sensor, 1:1 fit.

B1: S-E6 trimer (T4F) (other)
heavy: QVTLRESGPGLVKPSETLSLTCAVSGGSLSSVNYYWSWIRQHPGKGLEWIGYIYYSGSTNYNPSLKSRVTMSLDTSKNQFSLKLSSVTAADTAVYYCATPGAIMGALHIWGQGTLVTVSSASTKGPSVFPLAPSSKSTSGGTAALGCLVKDYFPEPVTVSWNSGALTSGVHTFPAVLQSSGLYSLSSVVTVPSSSLGTQTYICNVNHKPSNTKVDKKVEPPKSGGGGSGGGGSGGGGSPGSGYIPEAPRDGQAYVRKDGEWVLLSTFLGHHHHHH
light: QAVLTQPSSASSTPGQRVIISCSGSSSNIGSNTVSWYQQVPGAAPKLLIYFDYRRPSGVPDRFSGTRSGTSASLGISGLQSEDEADYYCAAWDDSLSAWVFGRGTKLTVLGGLGGLVDYKGQPKAAPSVTLFPPSSEELQANKATLVCLISDFYPGAVTVAWKADSSPVKAGVETTTPSKQSNNKYAASSYLSLTPEQWKSHRSYSCQVTHEGSTVEKTVAPTECS
notes: also called trimer S-E6; trimeric S-E6
Molecule B1 came in with a Kd of 0.0101 nM.

For the origin of these results see US20220213176A1 (SHANGHAITECH UNIVERSITY, published 2022).
